These results are taken from patent US20090203602A1.

In assay [1] the target is PRKCB1 (PKC beta I) Protein kinase C, beta 1, P05771. Kind of assay: cell-based or functional assay.
In assay [2] the target is BRAF V599E V-raf murine sarcoma viral oncogene homolog B1 V599E mutation, P15056. Kind of assay: cell-based or functional assay.

Turning to SGRPPMIVWFNRPFLIAVSHTHGQTILFMAKVINPVGA [D3 peptide], the % Inhibition mean in assay [1] turned out to be 88%; in assay [2] it was 99.8%.
